Results on two substances are retold here after PMC10846113, “fosA11, a novel chromosomal-encoded fosfomycin resistance gene identified in Providencia rettgeri” (Microbiology Spectrum, 2023).

As a reminder, the Km is the concentration of substrate that gives half-maximal velocity. As usually defined, the kcat is the number of substrate molecules converted per active site and unit of time at saturation. One may read the kcat/Km as the turnover number divided by the Michaelis constant.

Series [1] relates to C[C@@H]1O[C@@H]1P(=O)(O)O. The experiment in a line: glutathione consumption, monochlorobimane fluorescence, Michaelis-Menten fit. As to conditions: 30 mM glutathione, 0.05 mM MnCl2, 0.1 M HEPES pH 8.0, 25 °C. The class given is biochemical, Escherichia coli. The text has this: glutathione consumption, monochlorobimane fluorescence, Michaelis-Menten fit on FosA3
For series [2], the system named is C[C@@H]1O[C@@H]1P(=O)(O)O. Described as above. The class given is biochemical, Providencia rettgeri. As to conditions: 30 mM glutathione, 0.05 mM MnCl2, 0.1 M HEPES pH 8.0, 25 °C. The text has this: glutathione consumption, monochlorobimane fluorescence, Michaelis-Menten fit on FosA11

On to FosA3 (Escherichia coli), for which, in series [1], the Km is recorded as 12 ± 2 mM, the kcat came to 112 ± 5.3 s⁻¹ and the catalytic efficiency (kcat/Km) stood at 9000 ± 1000 M⁻¹ s⁻¹.
Consider FosA11 (Providencia rettgeri), for which, in series [2], the Michaelis constant (Km) worked out at 18 ± 4 mM, the kcat turned out to be 56.1 ± 3.2 s⁻¹ and the kcat/Km was found to be 2900 ± 500 M⁻¹ s⁻¹.
